# Test results reported in article PMC8998655, “Effect of Betaine and Arginine on Interaction of αB-Crystallin with Glycogen Phosphorylase b” (International Journal of Molecular Sciences, 2022).
# B1: αB-crystallin (natural protein, human, UniProt P02511 1-175, looked up)
# chain: MDIAIHHPWIRRPFFPFHSPSRLFDQFFGEHLLESDLFPTSTSLSPFYLRPPSFLRAPSWFDTGLSEMRLEKDRFSVNLDVKHFSPEELKVKVLGDVIEVHGKHEERQDEHGFISREFHRKYRIPADVDPLTITSSLSSDGVLTVNGPRKQVSGPERTIPITREEKPAVTAAPKK
# notes: αB-crystallin (HspB5), human; Polydisperse oligomer (about 40-mer at 48 °C without additives, about 24-mer with 300 mM betaine); also called HspB5; source: E. coli (pET23 vector), purified (salting out with ammonium sulfate, gel filtration)
# B2: glycogen phosphorylase b (enzyme, rabbit, UniProt P00489 1-843, looked up)
# chain: MSRPLSDQEKRKQISVRGLAGVENVTELKKNFNRHLHFTLVKDRNVATPRDYYFALAHTVRDHLVGRWIRTQQHYYEKDPKRIYYLSLEFYMGRTLQNTMVNLALENACDEATYQLGLDMEELEEIEEDAGLGNGGLGRLAACFLDSMATLGLAAYGYGIRYEFGIFNQKICGGWQMEEADDWLRYGNPWEKARPEFTLPVHFYGRVEHTSQGAKWVDTQVVLAMPYDTPVPGYRNNVVNTMRLWSAKAPNDFNLKDFNVGGYIQAVLDRNLAENISRVLYPNDNFFEGKELRLKQEYFVVAATLQDIIRRFKSSKFGCRDPVRTNFDAFPDKVAIQLNDTHPSLAIPELMRVLVDLERLDWDKAWEVTVKTCAYTNHTVLPEALERWPVHLLETLLPRHLQIIYEINQRFLNRVAAAFPGDVDRLRRMSLVEEGAVKRINMAHLCIAGSHAVNGVARIHSEILKKTIFKDFYELEPHKFQNKTNGITPRRWLVLCNPGLAEIIAERIGEEYISDLDQLRKLLSYVDDEAFIRDVAKVKQENKLKFAAYLEREYKVHINPNSLFDVQVKRIHEYKRQLLNCLHVITLYNRIKKEPNKFVVPRTVMIGGKAAPGYHMAKMIIKLITAIGDVVNHDPVVGDRLRVIFLENYRVSLAEKVIPAADLSEQISTAGTEASGTGNMKFMLNGALTIGTMDGANVEMAEEAGEENFFIFGMRVEDVDRLDQRGYNAQEYYDRIPELRQIIEQLSSGFFSPKQPDLFKDIVNMLMHHDRFKVFADYEEYVKCQERVSALYKNPREWTRMVIRNIATSGKFSSDRTIAQYAREIWGVEPSRQRLPAPDEKIP
# notes: glycogen phosphorylase b (muscle form), rabbit skeletal muscle; In all experiments the protein was heated at 48 °C, so it was partly unfolded (unfolded monomer and partly unfolded dimer); also called Phb; source: purified from rabbit skeletal muscle
# What was measured:
# [1] = target: the molecule itself; experiment: AUC + other: dynamic light scattering; sedimentation velocity at 48 °C, αB-Cr 0.2 mg/mL, 0.03 M Hepes pH 6.8, ionic strength 0.15 M, no additive; mass by the Svedberg equation with s from AUC and D from DLS; major peak 20.4 S
# [2] = target: the molecule itself; experiment: AUC + other: dynamic light scattering; sedimentation velocity at 48 °C, αB-Cr 0.2 mg/mL, 0.03 M Hepes pH 6.8, ionic strength 0.15 M, with 300 mM betaine; mass by the Svedberg equation with s from AUC and D from DLS; major peak 16.5 S
# [3] = target: the molecule itself; experiment: AUC; sedimentation velocity at 48 °C, Phb 0.4 mg/mL alone (also with 500 mM betaine), 0.03 M Hepes pH 6.8, ionic strength 0.15 M, 48,000 rpm
Protein,stoichiometry N [1],stoichiometry N [2],stoichiometry N [3]
B1,40,~24,–
B2,–,–,2
